We go through one substance from US20060188503A1.

The target in test [1] is KDR receptor on human umbilical vein endothelial cells (HUVEC) (human) (UniProt P35968). The experiment in a line: cell-based or functional assay.
For test [2], the target named is KDR receptor with a gD tag at the N-terminus, on CHO cells (UniProt P35968). The experiment in a line: cell-based or functional assay.

Sequence of KDR receptor on human umbilical vein endothelial cells (HUVEC) (human) (P35968 20-1356): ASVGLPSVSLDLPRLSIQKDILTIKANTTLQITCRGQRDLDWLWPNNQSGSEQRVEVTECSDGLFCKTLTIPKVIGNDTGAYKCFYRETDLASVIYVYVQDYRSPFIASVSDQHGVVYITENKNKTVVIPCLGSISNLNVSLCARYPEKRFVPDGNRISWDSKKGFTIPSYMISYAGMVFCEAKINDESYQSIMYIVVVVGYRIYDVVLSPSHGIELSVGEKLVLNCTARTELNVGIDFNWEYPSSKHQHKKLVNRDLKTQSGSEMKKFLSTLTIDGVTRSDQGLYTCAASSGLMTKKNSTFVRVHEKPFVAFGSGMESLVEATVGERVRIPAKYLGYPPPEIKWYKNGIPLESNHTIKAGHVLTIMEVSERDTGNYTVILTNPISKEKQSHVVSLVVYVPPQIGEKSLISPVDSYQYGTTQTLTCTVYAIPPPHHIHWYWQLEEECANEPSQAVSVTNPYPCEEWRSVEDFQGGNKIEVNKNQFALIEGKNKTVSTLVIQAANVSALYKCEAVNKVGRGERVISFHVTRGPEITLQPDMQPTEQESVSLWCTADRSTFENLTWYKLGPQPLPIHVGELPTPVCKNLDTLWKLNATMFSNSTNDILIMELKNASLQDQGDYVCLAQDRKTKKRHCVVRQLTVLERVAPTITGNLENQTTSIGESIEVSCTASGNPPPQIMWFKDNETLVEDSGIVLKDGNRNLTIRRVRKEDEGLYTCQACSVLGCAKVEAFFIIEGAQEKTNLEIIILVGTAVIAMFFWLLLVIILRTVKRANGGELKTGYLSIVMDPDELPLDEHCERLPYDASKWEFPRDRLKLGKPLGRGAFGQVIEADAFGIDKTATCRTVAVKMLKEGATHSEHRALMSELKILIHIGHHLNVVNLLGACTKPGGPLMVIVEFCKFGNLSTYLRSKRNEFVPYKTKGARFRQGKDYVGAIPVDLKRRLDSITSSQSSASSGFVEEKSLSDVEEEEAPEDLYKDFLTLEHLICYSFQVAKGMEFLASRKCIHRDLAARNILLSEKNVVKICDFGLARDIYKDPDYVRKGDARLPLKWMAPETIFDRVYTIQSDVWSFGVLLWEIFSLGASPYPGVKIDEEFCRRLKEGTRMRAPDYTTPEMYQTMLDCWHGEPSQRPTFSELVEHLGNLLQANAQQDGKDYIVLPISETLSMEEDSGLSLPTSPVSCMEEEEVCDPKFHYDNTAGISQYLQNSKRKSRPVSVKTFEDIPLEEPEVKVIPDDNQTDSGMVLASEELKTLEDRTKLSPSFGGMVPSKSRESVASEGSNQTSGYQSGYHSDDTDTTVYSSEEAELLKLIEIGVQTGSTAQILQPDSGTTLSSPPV

For “Native VEGF (8-109) (from UniProt P15692 214-315) (ligand)”, the Endothelial Cell Proliferation Activity (HUVEC, 3H-thymidine), concentration in test [1] amounted to 0.5 nM. Moreover, the Phosphorylation-Inducing Activity (KIRA), concentration at midpoint absorbance in test [2] stood at 2 nM.
